Measured values taken from article PMC10565641.

Tests used:
[1] = molecular target: Myc-tagged LEF1 (UniProt Q9UJU2); assay: co-immunoprecipitation (anti-FLAG IP, immunoblot densitometry); details: HEK293T cells, transfected; densitometry mean of three independent experiments; parent: 1.0
[2] = molecular target: Myc-tagged TCF7L2 (UniProt Q9NQB0); assay: as above; details: HEK293T cells, transfected; densitometry mean of three independent experiments; parent: 1.0
Chain of UniProt Q9NQB0 (Q9NQB0 whole entry): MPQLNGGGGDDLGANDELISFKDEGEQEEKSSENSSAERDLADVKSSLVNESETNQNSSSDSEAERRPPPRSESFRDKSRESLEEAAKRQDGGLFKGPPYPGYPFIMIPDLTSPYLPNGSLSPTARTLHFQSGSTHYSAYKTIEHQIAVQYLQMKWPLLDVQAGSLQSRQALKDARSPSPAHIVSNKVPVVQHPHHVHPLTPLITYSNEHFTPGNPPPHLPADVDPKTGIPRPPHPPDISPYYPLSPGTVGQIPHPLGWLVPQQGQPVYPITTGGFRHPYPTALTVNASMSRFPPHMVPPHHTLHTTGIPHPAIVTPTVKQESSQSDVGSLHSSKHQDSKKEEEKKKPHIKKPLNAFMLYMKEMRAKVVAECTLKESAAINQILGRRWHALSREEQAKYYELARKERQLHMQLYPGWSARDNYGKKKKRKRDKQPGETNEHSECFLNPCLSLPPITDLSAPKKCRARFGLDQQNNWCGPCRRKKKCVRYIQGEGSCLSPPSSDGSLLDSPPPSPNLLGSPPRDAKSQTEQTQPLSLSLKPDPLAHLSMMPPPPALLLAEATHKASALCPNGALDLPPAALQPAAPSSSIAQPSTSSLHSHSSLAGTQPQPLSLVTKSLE

Chain of UniProt Q9UJU2 (Q9UJU2 whole entry): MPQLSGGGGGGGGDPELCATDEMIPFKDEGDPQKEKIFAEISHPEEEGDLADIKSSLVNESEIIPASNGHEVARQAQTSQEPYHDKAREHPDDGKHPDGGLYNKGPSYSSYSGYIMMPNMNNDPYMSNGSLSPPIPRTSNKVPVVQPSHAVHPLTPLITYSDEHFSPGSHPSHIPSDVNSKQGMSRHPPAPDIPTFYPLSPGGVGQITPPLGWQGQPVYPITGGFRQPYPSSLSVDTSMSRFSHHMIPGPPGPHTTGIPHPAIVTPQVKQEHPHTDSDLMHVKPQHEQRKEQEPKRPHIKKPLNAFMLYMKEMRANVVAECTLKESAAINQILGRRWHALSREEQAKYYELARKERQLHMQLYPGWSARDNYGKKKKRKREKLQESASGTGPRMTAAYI

**Q.** What does the source list for “FLAG-V5-tagged FBXW7α, wild type (from UniProt Q969H0) WD40 (three arginine residues within one WD40 repeat mutated; lane label WD)”?
**A.** ratio to parent [1]: 0.44; ratio to parent [2]: 0.17
